Measured values as given in a protein production outcome set (Wang et al. 2014).

Experiment: label from the status in PepcDB records

Sequence | protein production
MDSNTFVSTNIKKERNVDSVLSKGKPVSILLMGTDTGELGRNWVGRTDSMILVIINPKTKKTLLMSIPRDSMVSIPGYEYTFPQKINAAYEYPANGKGHPETSIKTVEKWLNVPIDFYGIVNMEALEQITNKAGGISVKSPLTFTFSEDTAHDYGNNLYTFTKGSTKYKYYKNGSTLTKTSNIMNGAAALAFTRMRYNDPLGDYGRTLRQRLVFEAIAKKATVLIPQIVNKKFLNSISKQGKTDLTFNDMVTLASNYRKALKNIKSDSVQGTDYEYSGISYQVVASKEKQRVTNKIRKFLGLKKAKSGPLYASKVTNGVVILEHHHHHH | failed
KKYVDNLKETISRVEVSRDNFLTILNSLSEPIFILDREGKITFLNEIARELVQGRINPEGRPYYEIFEDYYINEMVEETIKSEEPQEGTLVTYVGNEKKYFHVKVIPVELKSGDKIFVILFHDVTKERKLDEMRREFIATVSHEL | failed
MKLISQAVKNYLPELSLRQKQTNNIIFITFWSQFSVYALNTVLVLFLTRPLIAQGLGYSQAKAYAFIGVTQATGYLMPILGGYMADNIVGVRRSILLGSIMLACAYLLVMLSGYTISSLGDQLFIIAFAFIPATNSLLMGTASSMVSHIYSDDAIKAKSAMTYYYMAINVGALLATMIAPVLLESRYGPLSVLTLTFIGKSIAALNFAKRYSIYDSVIWGMDKSKFSNQGLLRLVAYIAAIYSLTLYAYTHVYIASTLIGAGCAIGILWFLIKTIMLKGETRSKQMIAVLLIIEAIVFFIIYNQMNSTLVLFAENNSDLSFLWFKISPAQYQMLNPLLILLIGSQLPRFYRFFSRFTIPYQFAAGTILSGIALLVMAFAAQNAINGLVNGNYIALTYILISIAELWVSAIGLSMIGLYCDARAIAFAMGVWYLASSMSNAISGRIAGWVAIPENINSALESLPYYKNYYLIMGISALGLGILMYFVAYYLHKIMKRRGIELA | failed
MFLSVVTVAFRNYEGVVKTWRSLRNLARDPGLSFEWIVVDGGSEDGTREFLQKRHGEFNLRFISEKDRGIYDAMNKGIALAQGRYTLFLNSGDAFHDDAALFVRQLARQKGEAMYIGDALLDFGGGHKIRRKAKPGYYIYHSLPASHQAIFFPTAALKKYPYDLQYHVSSDYALAARLYKAGYPFRRINGLVSEFSMGGVSTSNNLELCQDAKNVQRKILRVPGFWAQLSYLLRLKTTGKTKARYNKVLEHHHHHH | failed
MLNKLMWLTGKAQEDWIEKILHLRQKIWPDYQRIKNDTLFKLYSHYPLYQWLSHYNGEVVAVINSLPVALDQSLDNLPQEGLNWVLSHLESTTPLTQSNYLAAVSVTVNPAYQRLGLSKLLLNRLKASAQEAQYKALIVPARPSQKENYPLISLEDYLKWKRVDNTIFDPWLRVHAQLGGKIAYPCQRSRVITANVAQWEQWLGHPLLQTGQYLVKGGLNPITINKEKDIGIYIEPNVWVIHDL | failed
MARGIWGVDSAQVVTDQLFQCVRTELGYPKFWGRYLSEVPNVSEGLTRDEIVRIRNYGVKVLPIYNAFREAVGYANGQVAARNAVFHARRLGIPKNKLLFANIEDFFAVDAAWIAAWVETLYPTGYRPGLYADPTKGDFAAAYCEAVSRNNQVAVQAVIWSAAPRPGTTKEQKAPRYQPAAPPCSANVWVWQYGRDAEVCPVDTNLADRRLLDFLY | not failed
MSAIPENANVTVLNKNEKKARELIGKLGLKQIPGIIRVTFRKKDNQIYAIEKPEVFRSAGGNYVVFGEAKVDNFTQKLAAAQQQAQASGIMPSNEDVATKSPEDIQADMQAAAEGSVNAAAEEDDEEGEVDAGDLNKDDIELVVQQTNVSKNQAIKALKAHNGDLVNAIMSLSK | failed
MKIEEVRFGLVKIDGKEFDHDIVIYPSGRIERRMKEISKKKHGTSHKLDPEELEKYLVEDFDVLLVGTGIYGMLSLLPESKKLVEDKEVIEKPTKEALKLLEELWGKKRILAIIHVTC | not failed
MRKFKISVLLKLGFYCLFLSIGLEMQARKFVHPGILHTTKSIERMRAQIADKEYPAYGSFELLKSHHCSQADYQPFGPFEIISRDGEFRHTKSKMEQDFSAVYQNALMWVLTGEKTHAEKSLELLLGYAGTLKRIPETNDAPLLVGLEGLKIIYATEILRHTYKKMTVVQFNEISRMIREVFLPVMENFYHRKPYTNGNWGPIVTKAYMAAAILWDNEEMYNKAVDFYLHANDNGTIAHYISGDTGQIQESGRDQGHSMLGIGALATVCEIAWQQGDDLYSALDNRLMKGFEYVAKYNLGYNVPFAVWKDVTGKYSNWTEISNKGRGRYMPIFEMTYNHFVIRKGMQMPYTEQVLRQIRPEGYDRDQPAFGSLLFNEAGTKKNYVDLVNPFVDSHRSRWFFFSSACRPFGMVSLSPDTDTEHSWGSGYLYDSKQIRCFSHVHNWQMSGVAVMPTVGEFKGHLGMNAYQSAFTHDGEIAKPGYHKVKLTDYDITAELTSTMRVGFHCYTFPKSDASYILFDTGAFLAHGPTAYSEVWKVSDKEIAGWEMMERTGRRPKDTPVYFYAQLSKPMDKVVSWREGRIESNSNPERISGKNAGMAVRFKTEKDEKVMLKVAISYVSVEQARKNMLTELSGWDFEQVKQSSFSEWNDWLGRIEVEGGSREQQIKLYTDLWHALLGRHVVSDADGHYMDMTSDFPRIRQIPLGEDGKPLYNHHNFDAWWGSHWSLNILWSMAYPEVMDNFCNTMIDMYQNGGLIPRGPSGGNYTYVMIGDPAVSFFASAYNKGIRNYDAELAYEGLRKNAFVGGIRDHAGYEHSKTAYSGGMKYYEEWGYVPDGRKDVEGMHTTGASMTLEYAYQDWCLAQMAKTMGKLQDYEFFMKRSKNYRNLWNPESGYMQPRGEDGNWLPYFDPLELTEKGGFCESNSAIYSHYVPHDMAGLIELYGGADQYVKRLNANFEKSESYGFFRSNKTKEGNWTDYGNQPGTGMAHLFSYAGAPWLTQKWVRKVKAAYCDVTPYGGYRDDEDQGQMGALGVLMAIGLFEVDGGCAEKPFYEITSPLFDKVTIHLDNRYYSGKTFQIITKGNSTDNMYIQNASLNGKKWNKCWFYHEDFIKGGTLELKLGAKPNKKWGVEELPPSFISSK | failed
LEYQKSQPPQPGDKFVSVVSQFITVASFSFSDVEDLLAEAKDLFTKAVKHFGEEAGKIQPDEFFGI | failed
MNISLVFPPFHLQSLYNLPPLGLISLATVLGEAGHRAVIRDLVLALRQGSLGMGKELYGEAARMILRDDPDLVGFSAQCTTFPAVVRIARLLKEQKPDLRIVAGGHNVSFLDVPTLERFPWIDAVVRGEGEVTFRELAASFAVGNDPAEVAGVTWRRGTEIVRNPDRELIADLDTLPLPDYTLVPPLASYRDACGIPRSIAILEVGRGCPHRCVYCSESVMWRRRTRTFSIPRLIREMEELHGRFGAECLVLAYDQFTADRRFVEEFCNRVIDARLNRVPWYCISRLDSLDRPLLDLMREAGCESMCYGIDSGSRRTLAFIGKEIDEGILYQRVRETTEAGMVPTLSFVIGFPEEEREDIDQTLFLALKAGVQGNSAPLVQLPTVLAGTELHRRYTGRLVREVDTYFSLGLEFDHGRRLADDERLIDADPFLFSSFYNLPCAGVPLAELDRIARWFPLILNGYPKSFILLSLALGRPPSNLFREILSRLEEDGWREDDPTAETAFLERFPCHAEGLMAGSASWPHFAEILTYETLALRATHRGPPRADGAGPLKGDPAGECRPVLREEVTVSEFRRNLPAIIADLKSGIFRESYPPEPTLLIFYPSGERLEVMEINRFGKDFLLLCNGLATCEEIAATLYGEYGDAMDSGAFSEECKDALTVFTGMGLVRDGAAPAP | failed
MNSPANITDPLVLFMPSGKRGRFPVGTPVLDAARQLGVYVESVCGGRATCGRCQIEVQEGNFAKHKIVSSNDHISPKGPKEERYERVRGLPERRRLSCSAQILGDLVIDVPQDTVINALEHHHHHH | failed
MDGGFVRVCLLASGSKGNSLFVESDGTRVLIDAGLSAREIVRRLAVIEVEPADLDGLFISHEHVDHVRGVGVLARKYRLPVHVSYPTHHEVREGFGDAPVVEFESGYSFGFRDLLIDPFPITHDACDPVGFTIESKEGKVGIATDLGTATRLVADKLKRCRVLVLESNHDEEMLMGGPYPWHLKQRIKSRHGHLSNNDSAALLAEVLHPGLEGLFLAHLSEVNNDPAVAKEVAENLLVAQTTCSPRLIVGDQYRPSETLTL | failed
SAVDCPQHCDSSECKSSPRCERTVLDDCGCCRVCAAGRGETCYRTVSGMDGMKCGPGLRCQPSNGEDPFGEEFGICKDC | failed
MSKGTTSQDAPFGTLLGYAPGGVAIYSSDYSSLDPQEYEDDAVFRSYIDDEYMGHKWQCVEFARRFLFLNYGVVFTDVGMAWEIFSLRFLREVVNDNILPLQAFPNGSPRAPVAGALLIWDKGGEFKDTGHVAIITQLHGNKVRIAEQNVIHSPLPQGQQWTRELEMVVENGCYTLKDTFDDTTILGWMIQTEDTEYSLPQPEIAGELLKISGARLENKGQFDGKWLDEKDPLQNAYVQANGQVINQDPYHYYTITESAEQELIKATNELHLMYLHATDKVLKDDNLLALFDIPKILWPRLRLSWQRRRHHMITGRMDFCMDERGLKVYEYNADSASCHTEAGLILERWAEQGYKGNGFNPAEGLINELAGAWKHSRARPFVHIMQDKDIEENYHAQFMEQALHQAGFETRILRGLDELGWDAAGQLIDGEGRLVNCVWKTWAWETAFDQIREVSDREFAAVPIRTGHPQNEVRLIDVLLRPEVLVFEPLWTVIPGNKAILPILWSLFPHHRYLLDTDFTVNDELVKTGYAVKPIAGRCGSNIDLVSHHEEVLDKTSGKFAEQKNIYQQLWCLPKVDGKYIQVCTFTVGGNYGGTCLRGDESLVIKKESDIEPLIVVKK | failed
MPSLCKLNPCIQTHKEVIMDNLITQLLFSASITGPICVMLLLGVLLKRIHLINDNFIEVASKLVFQVTLPAMLFLSIVNAKHDFSSSSHLIIYGLIANFVFFLFTIYSTRFAFKNKQNHGVIIQGGFRANTAIIALAYVANAYGNTGVALAAIYVASTTILYNIQAVIALTPKNENNKKQAVGIIIKTLTKNPLIISIVLGIICSLLSIPVPGMLSQAGQYFANMTLPLALLCAGGSLNLHSMKEESAATWFATSYKLILSPLFITSGGILVGFRGLELGLIFFMSAAPTAAASYVMARAMGGNAILAANIIAQTTVASLFTCTLGIFVLSSFNLI | failed
MRVEALGKVAPLPQAQTPVSLNEASLEELMALPGIGPVLARRIVEGRPYARVEDLLKVKGIGPATLERLRPYLRP | not failed
MKDKRTPMNAFRPKAQTALVVALSLFMAACSNNPLMRTSAATSSDVADEIDRTLEQAEQSQRAASNVSAVPAPSAADISSQLLPPLSSSPQQDERFDVNASEVPASSFFEALVAGTRYNVVVRPDVATTVSLRLSDVTVPEVMDIAADLYGLDITRSGRLYRVAADQVQTRLFPIDYLHFKRRGGSETRVSSGQVSSSRSNREGAGSNDNNEDNETRNLVGTTISTQTESDFWRDIRDALNMIVGGDNGQVVVNPGAGLVMVRAGADDLRLVENYLRKTELIMQRQVVLEAKILEVGLNEGYQQGIDWNDVQSSAGRADYFTSQSLGGQQIRTPDIGGLFSATVSAGDFTGLIELLGQQGNVQILSSPRISTVNNQKAVIKVGTDEFFVTDIDFDDNNSAVTATDSTSTSVELTPFFSGISLDVTPQIAEDGAITLHVHPSVSEVADQEKVITIGERDVTLPLARSTVRETDSVIRAESGQIVVIGGLIQNSSEDNNSAVPFFSEIPLLGELFKQRNFESRKSELVILLRPVVANAGQMQADVSASRERMNVLRELLNSSESVKPQPETAPR | failed
MSKVALFSHVSPDGDCIGSMLGIGLALEALGKEVAMFNPDPIPRNLSFLPGVDKITQSMPDPLPETLLFVDCADLQRVQLQREDLPADAVILNLDHHISNQNFGRINWVDSQAAASGELAYALVRRLNVELTQEIAANFYTALLTDTGSFKYANTTAKTHQIAGELMELEHHHHHH | failed
MAMAVSGAVLSGLGSSFLTGGKRGATALASGVGTGAQRVGRKTLIVAAAAAQPKKSWIPAVKGGGNFLDPEWLDGSLPGDFGFDPLGLGKDPAFLKWYREAELIHGRWAMAAVLGIFVGQAWSGVAWFEAGAQPDAIAPFSFGSLLGTQLLLMGWVESKRWVDFFNPDSQSVEWATPWSKTAENFANYTGDQGYPGGRFFDPLGLAGKNRDGVYEPDFEKLERLKLAEIKHSRLAMVAMLIFYFEAGQGKTPLGALGL | failed
